# Measured values reported in the DeepSol protein solubility set.
# Assay: soluble on expression in E. coli; label from the status in PepcDB or PDB records
row,Sequence,soluble on expression in E. coli
1,MAAAALREQLNALLSSMFASGLVDEQFQQLQMLQEDGGTPGFVAEVVTLFCDDADRIISELAALLDQPIVDFDKVDAYVHQLKGSSASVGAQKVKFTCMQFRQLCQDKNRDGCIMALAVVRNEFYDLRNKFQTMLQLEQQIQAQQ,soluble
2,MAAARIPMSDNLPWKTWTPDDLAPPPAEFVPMAESEETIIEEVEPSLEQQLAQLQMQAHEQGYQAGIAEGRQQGHEQGYQEGLAQGLEQGLAEAKAQQAPIHARMQQLVSEFQTTLDALDSVIASRLMQMALEAARQVIGQTPTVDNSALIKQIQQLLQQEPLFSGKPQLRVHPDDLQRVDDMLGATLSLHGWRLRGDPTLHPGGCKVSADEGDLDASVATRWQELCRLAAPGVV,soluble
3,MAAECATQRAPGSVVELLGKSYPQDDHSNLTRKVLTRVGRNLHNQQHHPLWLIKERVKEHFYKQYVGRFGTPLFSVYDNLSPVVTTWQNFDSLLIPADHPSRKKGDNYYLNRTHMLRAHTSAHQWDLLHAGLDAFLVVGDVYRRDQIDSQHYPIFHQLEAVRLFSKHELFAGIKDGESLQLFEQSSRSAHKQETHTMEAVKLVEFDLKQTLTRLMAHLFGDELEIRWVDCYFPFTHPSFEMEINFHGEWLEVLGCGVMEQQLVNSAGAQDRIGWAFGLGLERLAMILYDIPDIRLFWCEDERFLKQFCVSNINQKVKFQPLSKYPAVINDISFWLPSENYAENDFYDLVRTIGGDLVEKVDLIDKFVHPKTHKTSHCYRITYRHMERTLSQREVRHIHQALQEAAVQLLGVEGRF,soluble
4,MAAGFGRCCRVLRSISRFHWRSQHTKANRQREPGLGFSFEFTEQQKEFQATARKFAREEIIPVAAEYDKTGEYPVPLIRRAWELGLMNTHIPENCGGLGLGTFDACLISEELAYGCTGVQTAIEGNSLGQMPIIIAGNDQQKKKYLGRMTEEPLMCAYCVTEPGAGSDVAGIKTKAEKKGDEYIINGQKMWITNGGKANWYFLLARSDPDPKAPANKAFTGFIVEADTPGIQIGRKELNMGQRCSDTRGIVFEDVKVPKENVLIGDGAGFKVAMGAFDKTRPVVAAGAVGLAQRALDEATKYALERKTFGKLLVEHQAISFMLAEMAMKVELARMSYQRAAWEVDSGRRNTYYASIAKAFAGDIANQLATDAVQILGGNGFNTEYPVEKLMRDAKIYQIYEGTSQIQRLIVAREHIDKYKN,soluble
5,MAAGIVASRRLRDLLTRRLTGSNYPGLSISLRLTGSSAQEEASGVALGEAPDHSYESLRVTSAQKHVLHVQLNRPNKRNAMNKVFWREMVECFNKISRDADCRAVVISGAGKMFTAGIDLMDMASDILQPKGDDVARISWYLRDIITRYQETFNVIERCPKPVIAAVHGGCIGGGVDLVTACDIRYCAQDAFFQVKEVDVGLAADVGTLQRLPKVIGNQSLVNELAFTARKMMADEALGSGLVSRVFPDKEVMLDAALALAAEISSKSPVAVQSTKVNLLYSRDHSVAESLNYVASWNMSMLQTQDLVKSVQATTENKELKTVTFSKL,soluble
6,MAAPAASGLSRQVRSFSTSVVRPFAKLVRPPVQVYGIEGRYATALYSAASKEKKLDQVEKELLRVGQLLKDPKVSLAVLNPYIKRTVKVKSLNDITKREKFSPLTANLMNLLAENGRLGNTQGIISAFSTIMSVHRGEVPCTVTTASPLDDAVLSELKTVLKSFLSPNQILKLEIKTDPSIMGGMIVRIGEKYVDMSAKSKIQKLSKAMREML,soluble
7,MAAPLIPVLTAPTAAGKTALALRLAREYGLEIVAADAFTVYRGLDLGTAKPTPQERASVPHHLLDVVDVTQSYDVAQYAAQAEAAIVDILARGRLPLVVGGTGFYLSALSRGLPLTPPSDPKMRAALEAELQERGLDALLAEIEQANPAEAARMERNPRRVVRALEVYRAAGRFPGEFGYSPPAFQYQVFAFSPPAAEMEQRVQERTAAMLRAGWPQEAQWLAGQVPPEQEPRPTVWQALGYAEALAVAQGRLSLAGAEQAIALATRQYGKRQLTWMRRQLGAEVQSPDAAEAHLRAFLERSGAPSLEHHHHHH,not soluble
8,MAAPVDLELKKAFAELQAKMVDTQQKVKLADLQIEQLSRVKKHANLTHGEITSLPESTRMFEGAGRMFILQSKGEISNQLLEKQKTADDKIKELEQKKTYLERSVKDAEDNIREMLMSRRAQ,not soluble
9,MAAQIPESDQIKQFKEFLGTYNKLTETCFLDCVKDFTTREVKPEETTCSEHCLQKYLKMTQRISMRFQEYHIQQNEALAAKAGLLGQPR,soluble
10,MAAQRRSLLQSEQQPSWTDDLPLCHLSGVGSASNRSYSADGKGTESHPPEDSWLKFRSENNCFLYGVFNGYDGNRVTNFVAQRLSAELLLGQLNAEHAEADVRRVLLQAFDVVERSFLESIDDALAEKASLQSQLPEGVPQHQLPPQYQKILERLKTLEREISGGAMAVVAVLLNNKLYVANVGTNRALLCKSTVDGLQVTQLNVDHTTENEDELFRLSQLGLDAGKIKQVGIICGQESTRRIGDYKVKYGYTDIDLLSAAKSKPIIAEPEIHGAQPLDGVTGFLVLMSEGLYKALEAAHGPGQANQEIAAMIDTEFAKQTSLDAVAQAVVDRVKRIHSDTFASGGERARFCPRHEDMTLLVRNFGYPLGEMSQPTPSPAPAAGGRVYPVSVPYSSAQSTSKTSVTLSLVMPSQGQMVNGAHSASTLDEATPTLTNQSPTLTLQSTNTHTQSSSSSSDGGLFRSRPAHSLPPGEDGRVEPYVDFAEFYRLWSVDHGEQSVVTAP,not soluble
11,MAARPITLGIDLGTTSVKAALLRAAPDDPSGFAVLASCARAARAEAAVESAVAGPQGREQDVSRILQALHECLAALPRPQLRSVVGIGVSGQMHGVVFWKTGQGCEWTEGGITPVFEPRAVSHLVTWQDGRCSSEFLASLPQPKSHLSVATGFGCATIFWLLKYRPEFLKSYDAAGTIHDYVVAMLCGLPRPLMSDQNAASWGYFNTQSQSWNVETLRSSGFPVHLLPDIAEPGSVAGRTSHMWFEIPKGTQVGVALGDLQASVYSCMAQRTDAVLNISTSVQLAASMPSGFQPAQTPDPTAPVAYFPYFNRTYLGVAASLNGGNVLATFVHMLVQWMADLGLEVEESTVYSRMIQAAVQQRDTHLTITPTVLGERHLPDQLASVTRISSSDLSLGHVTRALCRGIVQNLHSMLPIQQLQEWGVERVMGSGSALSRNDVLKQEVQRAFPLPMSFGQDVDAAVGAALVMLRRHLNQKES,not soluble
12,MAATTKKPEIAAQHKPQTAAAAVASPATGAQPGHYVDPAVASAAGVNNVPAQHQAPGSPAQGYGAAADIGGLTTQPTAISAGTSSIYSTATHSGSAAAQGMAAAQGGSAQKIIPAVSSVYSAPIQPSQPQPVAAPVAVPVAAQVPPEQHSENRQPAAVPVPQPEQRAAAQPATNAGATVEGREGEGRSLTLAAFFAGAAKKRLPKMIESGTAGNTEVAALSGAADGSMGIALSGRSMMSEEFDDAHLDEEDDQPNGLMKLASLSGLTRVSPNGLFLQTDHVEVGCFKPELVRMIKDVERHYNSPAIVTSGYRPPKGIRQGSKHYTCDAADIQIKGVSKWELATYLRSLPDRGGVGTYCHTESVHMDTGEARDWNWRCRRTAARK,not soluble
13,MACLCLANISWATVCANSTGVAEDEHYDLSNVFNSTNNQPGQIVVLPEKSGWVGVSAICPPGTLVNYTYRSYVTNFIVQETIDNYKYMQLNDYLLGAMSLVDSVMDIQFPPQNYIRMGTDPNVSQNLPFGVMDSRLIFRLKVIRPFINMVEIPRQVMFTVYVTSTPYDPLVTPVYTISFGGRVEVPQNCELNAGQIVEFDFGDIGASLFSAAGPGNRPAGVMPQTKSIAVKCTNVAAQAYLTMRLEASAVSGQAMVSDNQDLGFIVADQNDTPITPNDLNSVIPFRLDAAAAANVTLRAWPISITGQKPTEGPFSALGYLRVDYQ,not soluble
